The values that follow come from doi:10.1101/2022.02.15.480544 (bioRxiv, 2022).

One may read the stoichiometry N as a count of units in the complex or per binding partner.

B1: Bacillus subtilis RecA, wild type, hexa-histidine fusion (natural protein, B. subtilis, UniProt P16971 11-348, looked up)
chain: ALKQIEKQFGKGSIMKLGEKTDTRISTVPSGSLALDTALGIGGYPRGRIIEVYGPESSGKTTVALHAIAEVQQQGGQAAFIDAEHALDPVYAQKLGVNIEELLLSQPDTGEQALEIAEALVRSGAVDIVVVDSVAALVPKAEIEGDMGDSHVGLQARLMSQALRKLSGAINKSKTIAIFINQIREKVGVMFGNPETTPGGRALKFYSSVRLEVRRAEQLKQGNDVMGNKTKIKVVKNKVAPPFRTAEVDIMYGEGISKEGEIIDLGTELDIVQKSGSWYSYEEERLGQGRENAKQFLKENKDIMLMIQEQIREHYGLDNNGVVQQQAEETQEELEFEE
B2: Bacillus subtilis RecA K70A (Walker A mutant, lowered ATP binding), hexa-histidine fusion (natural protein, B. subtilis, UniProt P16971 11-348, looked up)
chain: ALKQIEKQFGKGSIMKLGEKTDTRISTVPSGSLALDTALGIGGYPRGRIIEVYGPESSGATTVALHAIAEVQQQGGQAAFIDAEHALDPVYAQKLGVNIEELLLSQPDTGEQALEIAEALVRSGAVDIVVVDSVAALVPKAEIEGDMGDSHVGLQARLMSQALRKLSGAINKSKTIAIFINQIREKVGVMFGNPETTPGGRALKFYSSVRLEVRRAEQLKQGNDVMGNKTKIKVVKNKVAPPFRTAEVDIMYGEGISKEGEIIDLGTELDIVQKSGSWYSYEEERLGQGRENAKQFLKENKDIMLMIQEQIREHYGLDNNGVVQQQAEETQEELEFEE
B3: Bacillus subtilis RecA K70R (Walker A mutant, no ATPase activity), hexa-histidine fusion (natural protein, B. subtilis, UniProt P16971 11-348, looked up)
chain: ALKQIEKQFGKGSIMKLGEKTDTRISTVPSGSLALDTALGIGGYPRGRIIEVYGPESSGRTTVALHAIAEVQQQGGQAAFIDAEHALDPVYAQKLGVNIEELLLSQPDTGEQALEIAEALVRSGAVDIVVVDSVAALVPKAEIEGDMGDSHVGLQARLMSQALRKLSGAINKSKTIAIFINQIREKVGVMFGNPETTPGGRALKFYSSVRLEVRRAEQLKQGNDVMGNKTKIKVVKNKVAPPFRTAEVDIMYGEGISKEGEIIDLGTELDIVQKSGSWYSYEEERLGQGRENAKQFLKENKDIMLMIQEQIREHYGLDNNGVVQQQAEETQEELEFEE

This data set concerns the molecule itself. Nature of the data set: mass photometry.
With B1, the “stoichiometry N” value turned out to be 2.
In the case of B2, the “stoichiometry N” value turned out to be 2.
The result for B3 reads 2.
